From the supplement of paper PMC10567573

B1: ISL2 (parent)
chain: HYPFLGAMGDHSKKKPGTAMCVGC

Variants of: B1
Assay: protein stability index of a GFP-peptide fusion (GPS, HEK-293T) (PSI 1-6); higher = more stable
Details: c terminus: a fixed tail appended
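Also: lentivirally expressed fusions sorted by FACS into six bins by GFP to DsRed ratio, PSI derived from sequencing read proportions per bin multiplied by bin number.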

In order of rising protein stability index:
1. K14W  1.51
2. D10Y  1.56
3. D10W  1.64
4. K15W  1.67
5. D10V  1.7
6. G9F  1.7
7. K14Y  1.74
8. D10Q  1.78
9. D10M  1.79
10. A7F  1.79
11. S12I  1.8
12. K13R  1.8
13. D10F  1.81
14. A7Y  1.84
15. G9W  1.86
16. D10K  1.88
17. K13W  1.9
18. A7I  1.9
19. S12M  1.92
20. H11W  1.93
21. A7W  1.95
22. G9I  1.95
23. K14F  1.98
24. S12L  1.99
25. H11Y  1.99
26. K15Y  2.02
27. K13I  2.04
28. K15I  2.05
29. K13Y  2.06
30. D10N  2.07
31. D10R  2.07
32. K15F  2.07
33. S12F  2.08
34. G9V  2.09
35. K15V  2.13
36. K13A  2.15
37. M8W  2.17
38. D10G  2.18
39. G9R  2.19
40. H11F  2.19
41. D10I  2.2
42. K15M  2.2
43. H11L  2.21
44. K13L  2.23
45. S12P  2.27
46. K15A  2.27
47. K14A  2.29
48. M8I  2.3
49. K13M  2.31
50. A7M  2.31
51. A7R  2.31
52. G9Y  2.31
53. H11I  2.33
54. K14G  2.34
55. K13F  2.34
56. D10P  2.35
57. H11S  2.35
58. D10T  2.37
59. K15G  2.37
60. A7V  2.37
61. D10L  2.39
62. D10A  2.39
63. H11V  2.39
64. K13V  2.4
65. K15P  2.4
66. G9L  2.4
67. K15L  2.42
68. K14L  2.44
69. K14Q  2.45
70. A7H  2.45
71. A7L  2.45
72. H11T  2.45
73. K15H  2.47
74. S12Y  2.48
75. K14S  2.51
76. M8Y  2.51
77. M8S  2.52
78. S12W  2.52
79. D10H  2.52
80. K15S  2.52
81. K15Q  2.52
82. G9K  2.52
83. S12A  2.53
84. M8F  2.55
85. S12G  2.56
86. S12K  2.56
87. K14T  2.58
88. S12V  2.58
89. G9N  2.58
90. S12T  2.59
91. D10C  2.6
92. A7P  2.6
93. K15N  2.61
94. K13S  2.64
95. H11C  2.64
96. K13G  2.65
97. G9S  2.65
98. G9M  2.65
99. K14R  2.67
100. K13Q  2.69
101. H11A  2.69
102. S12R  2.72
103. K14V  2.73
104. S12H  2.73
105. A7S  2.74
106. H11M  2.74
107. K15D  2.75
108. K15T  2.75
109. K15E  2.77
110. G9Q  2.77
111. K14I  2.78
112. K13N  2.79
113. K14N  2.8
114. M8H  2.8
115. K13T  2.8
116. H11G  2.81
117. M8T  2.82
118. G9T  2.82
119. K13P  2.84
120. G9D  2.85
121. D10S  2.86
122. A7K  2.86
123. H11K  2.9
124. K14M  2.91
125. S12N  2.92
126. H11N  2.92
127. H11R  2.92
128. A7T  2.93
129. M8N  2.94
130. M8V  2.96
131. G9P  2.96
132. K14P  2.98
133. A7G  2.99
134. K14D  3
135. M8K  3
136. S12E  3.03
137. K13H  3.04
138. G9H  3.05
139. K14H  3.07
140. M8P  3.07
141. S12Q  3.07
142. K13E  3.07
143. M8Q  3.16
144. H11P  3.16
145. K13D  3.18
146. M8R  3.19
147. A7Q  3.22
148. H11Q  3.25
149. S12D  3.26
150. M8C  3.33
151. G9A  3.37
152. K14E  3.44
153. H11E  3.44
154. K15C  3.46
155. H11D  3.5
156. G9C  3.51
157. M8D  3.52
158. M8L  3.55
159. G9E  3.58
160. A7N  3.6
161. D10E  3.69
162. K13C  3.8
163. M8E  3.81
164. M8G  3.85
165. S12C  3.95
166. K14C  4.25
167. M8A  4.25
